# From the nanobody polyreactivity screen of Harvey et al. (2022)
# Assay: yeast display, Sf9 membrane polyspecificity reagent, FACS + sequencing; frameworks hold sequencing errors
# In short: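 After 36–48 hours of galactose induction, yeast (Saccharomyces cerevisiae BJ5465) displaying a synthetic nanobody library were stained at 4 °C for 1 hour with 10% biotinylated, detergent-solubilized Sf9 membrane reagent. Streptavidin microbeads enriched the stained cells before FACS sorting into low and high (top ~1%) gates on anti-HA and streptavidin fluorescence. Each clone's polyreactivity label reflects its gate of origin.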
row,Sequence,polyreactivity (PSR sort gate)
1,QVQLVESGGGLVQAGGSLRLSCAASGFIFQYYAMGWYRQAPGKERELVAAINWSGGSTYYADSVKGRFTISRDNAKNSVYLQMNSLKPEDTAVYYCAADEYTSGYEYWGQGTQVTVSS,high polyreactivity
2,QVQLVESGGGLVQAGGSLRLSCAASGFIFQYYAMGWYRQAPGKERELVAAITPSGTSTYYADSVKGRFTISRDNAKNTVYLQMNSLKPEDTAVYYCAVRYYFVDFHSTTGYPYSYDYWGQGTQVTVSS,low polyreactivity
3,QVQLVESGGGLVQAGGSLRLSCAASGFIFRDNAMGWSRQAPGKERELVAAISKSGGRTYYADSVKGRFTISRDNAKNTVYLQMNSLKPEETAVYYCAKASRYWSLYYWGQGSQVTVSS,high polyreactivity
4,QVQLVESGGGLVQAGGSLRLSCAASGFIFRDNAMGWYRPAPGKERELVAAISKSGGRTYYADSVKGRFTISRDNAKNTVYLQMNSLKPEDTAVYYCAKASRYWSLYYWGQGTQVTVSS,high polyreactivity
5,QVQLVESGGGLVQAGGSLRLSCAASGFIFRFNAMGWYIQAPGKSRELVAAISWSGSSTYYADSVKGRFTISRDNAKNTVYLQMTSLKPEDTAVYYCATSSLYYTIVKGDFYYWGQGTQVTVSS,high polyreactivity
6,QVQLVESGGGLVQAGGSLRLSCAASGFIFRFYAMGWYRQAPGKERELVATISKRGGTTYYADSVKGRFTISRDNAKNTVYLQMNSLKPEDTAVYYCAVRLYLEMDYWGQGTQVTVSS,high polyreactivity
7,QVQLVESGGGLVQAGGSLRLSCAASGFIFRGNAMGWYRQAPGKERELVAAISKSGGRTYYADSVKGRFTISRDNAKNTVYLQMNSLKPEDTAVYYCNVLRLGLGRESDSWGQGTQVTVSS,high polyreactivity
8,QVQLVESGGGLVQAGGSLRLSCAASGFIFRGNAMGWYRQAPGKERELVAAISKSGGRTYYADSVKGRFTISRDNAKNTVYLQMNSLKPEDTAVYYCNVLRMGLGRESDSWGQGTQVTVSA,high polyreactivity
9,QVQLVESGGGLVQAGGSLRLSCAASGFIFRGNAMGWYRQAPGKERELVASISRTGDTTYYADSVKGRFTISRDNAKNTVYLQMNSLKPEDTAVYYCARRSRVGYPLDSWGQGTQVTVSS,high polyreactivity
10,QVQLVESGGGLVQAGGSLRLSCAASGFIFRGYAMGLYRQAPGKERELVAAISKSGGSTYYADSVKGRFTISRDNAKNTVYLQMNSLKPEDTAVYYCATDILIDGFYYDYWGQGTQVTVSS,high polyreactivity
11,QVQLVESGGGLVQAGGSLRLSCAASGFIFRGYAMGWYRQAPGKERELVAAISRRGGSTYYADSVKGRFTISRDNAKNTVYLQMNSLKPEDTAVYYCNADTTPQGNVRDGYWGQGTQVTVSS,high polyreactivity
12,QVQLVESGGGLVQAGGSLRLSCAASGFIFRINAMGWYRQAPGKERELVAAISSSGGSTYYADSVKGRFTISRDNAKNTVYLQMNSLKPEDTAVYYCNAVGTGGYSSEYGYWGQGTQVTVSS,high polyreactivity
13,QVQLVESGGGLVQAGGSLRLSCAASGFIFRKYAMGWYRQAPGKERELVAAITASGGSTYYADSVKGRFTISRDNAKNTVYLQMNSLKPEDTAVYYCATDYHGAERWLKYDYWGQGTQVTVSS,high polyreactivity
14,QVQLVESGGGLVQAGGSLRLSCAASGFIFRNYAMGWYRQAPGKERELVAGITSSGGRTYYADSVKGRFTISRDNAKNTVYLQMNSLKPEDTAVYYCNIDVLYYRYTSFSNRYYYWGQGTQVTVSS,high polyreactivity
15,QVQLVESGGGLVQAGGSLRLSCAASGFIFRPYVMGWYRQAPGKERELVAAISRSGSSTYYADSVKGRFTISRDNAKNTVYLQMNSLKPEDTAVYYCARRTSQEFDYWGQGTQVTVSS,high polyreactivity
16,QVQLVESGGGLVQAGGSLRLSCAASGFIFRQYVMGWYRQAPGKERELVAAISWRTTSTYYADSVKGRFTISRDNAKNTVYLQMNSLKPEDTAVYYCAAPQVWWGYYTRGVDYWGQGTQVTVSS,low polyreactivity

row,Sequence,polyreactivity (PSR sort gate)
1,QVQLVESGGGLVQAGGSLRLSCAASGFIFRRNAMGWYRQAPGKERELVAAISTRGGITYYADSVKGRFTISRDNAKNTVYLQMNSLKPDDTAVYYCAVVFVWGWPGYYWGQGTQVTVSS,high polyreactivity
2,QVQLVESGGGLVQAGGSLRLSCAASGFIFRRNAMGWYRQAPGKERELVASIRSGGSTKYADSVKGRFTISRDNAKNTVYLQMTSLKPEDTAVYYCNADDPGYAVPWYWFKYDYWGQGTQVTVSS,low polyreactivity
3,QVQLVESGGGLVQAGGSLRLSCAASGFIFRRYAMGWYRQAPGKDRALVAAITIGGSTSYADSVKGRFTISRDNAKKTVYVQMNSLKPEDTAVYYCNAGSFSRKARRYDYWGQGTQVTVSS,high polyreactivity
4,QVQLVESGGGLVQAGGSLRLSCAASGFIFRRYAMGWYRQAPGKERELVAAIRWDDGNTYYADSVKGRFTISRDNAKNTVYLQMNSLKPEDTAVYYCNADKWSSTDDWLYDYWGQGTQVTVSS,low polyreactivity
5,QVQLVESGGGLVQAGGSLRLSCAASGFIFRRYAMGWYRQAPGKERELVAAISGSGGRTYYADSVKGRFTISRDNAKNTVYLQMNSLKPEDTAVYYCAADHGSLLYDYWGQGTQVTVSS,high polyreactivity
6,QVQLVESGGGLVQAGGSLRLSCAASGFIFRRYAMGWYRQAPGKERELVAAISYNVVSTYYADSVKGRFTISRDNAKNTVYLQLNSLKPEVTAVYYCNTASSYRSFRYNYWGQGTQVTVSS,high polyreactivity
7,QVQLVESGGGLVQAGGSLRLSCAASGFIFRRYAMGWYRQAPGKERELVAGISNRGGRTYYADSVKGRFTISRDNAKNTVYLQMNSLKPEDTAVYYCAADQKSGYRVSRYYVFYDYWGQGTQVTVSS,high polyreactivity
8,QVQLVESGGGLVQAGGSLRLSCAASGFIFRRYAMGWYRQAPGKERELVAIITSGVRTYSADSVKGRFTISRDNAKNTVYLQMNSLKPEDTAVYYCAARVKDYPEYDYWGQGTQVTVSS,low polyreactivity
9,QVQLVESGGGLVQAGGSLRLSCAASGFIFRRYVMGWYRQAPGKERELVAAISNGGGRTYYADSVKGRFTISRDNAKNTVYLQMNSLKPEDTAVYYCAAYPRGPLAPDYDYWGQGTQVTVSS,high polyreactivity
10,QVQLVESGGGLVQAGGSLRLSCAASGFIFRRYVMGWYRQAPGKERELVAAISRGGSTYYADSVKGRFTISRDNAKNTVYLQMNSLKPEDTAVYYCNTPGGFVGDDYDYWGQGTQVTVSS,high polyreactivity
11,QVQLVESGGGLVQAGGSLRLSCAASGFIFRSYAMGWYRQAPGKERELVAGISYRGGSTYYADSVKGRFTISRDNAKNTVYLQMNSLKPEDTAVYYCAATAWYNWYFGLDYWGQGTQVTVSS,high polyreactivity
12,QVQLVESGGGLVQAGGSLRLSCAASGFIFRVNALGGSRPAPGKERVLVAARISSSGSTYYADSVKGRFTISRDNAKNTVYLQMNSLKPEDTAVYYCAADPYYLQQFDYWGQGTQVTVSS,low polyreactivity
13,QVQLVESGGGLVQAGGSLRLSCAASGFIFRVNAMGWYRQAPGKERELVAAISRRGGSTYYADSVKGRFTISRDNAKNTVYLQMNSLKPEDTAVYYCAVKGASYPAYRGYDYWGQGTQVTVSS,high polyreactivity
14,QVQLVESGGGLVQAGGSLRLSCAASGFIFRVNAMGWYRQAPGKERELVAAISSSGTSTYYADSVKGRFTISRDNAKNTVYLQMNSLKPEDTAVYYCAARLFYRSAYGYWGQGTQVTVSS,high polyreactivity
15,QVQLVESGGGLVQAGGSLRLSCAASGFIFRVYAMGWYRQAPGKERELVAAISDSGGSTTYADSVKGRFTISRDNAKNTVYLQMNSLKPEDTAVYYCAADYDFFSLYLYDYWGQGTQVTVSS,low polyreactivity
16,QVQLVESGGGLVQAGGSLRLSCAASGFIFRWYAMGWYRQAPGKERELVASITRGGSTNYADSVKGRFTISRDNAKNTVYLQMNSLKPEDTAVYYCAAGWRRAAGIQYWYGYWGQGTQVTVSS,high polyreactivity
